Experimental data taken from article PMC4655416.

Experiments:
[1] = molecular target: CeHsp90-MC (middle and C-terminal domains of C. elegans Hsp90) (C. elegans)
[2] = molecular target: CeHsp90-MC (middle and C-terminal domains of C. elegans Hsp90) (C. elegans); experiment: AUC; sedimentation velocity with UV/VIS absorbance optics (OD280); PPH-5 titrated to a constant concentration of CeHsp90 (4 μM) or CeHsp90-MC (3.5 μM); global fit to sequential binding of a first and second PPH-5

B1: protein phosphatase 5 from C. elegans (PPH-5) (enzyme)
chain: MAATITDDIVATVLESIEEKSYEDEKEKAGMIKDEANQFFKDQVYDVAADLYSVAIEIHPTAVLYGNRAQAYLKKELYGSALEDADNAIAIDPSYVKGFYRRATANMALGRFKKALTDYQAVVKVCPNDKDARAKFDECSKIVRRQKFEAAISTDHDKKTVAETLDINAMAIEDSYDGPRLEDKITKEFVLQLIKTFKNQQKLHKKYAFKMLLEFYNYVKSLPTMVEITVPTGKKFTICGDVHGQFYDLCNIFEINGYPSETNPYLFNGDFVDRGSFSVETIFTMIGFKLLYPNHFFMSRGNHESDVMNKMYGFEGEVKAKYTQQMCDMFTETFCWLPLCHLINEKIFVCHGGLFKEDGVTLEDIRKTDRNRQPPDEGIMCDLLWSDPQPINGRSPSKRGVGCQFGPDVTSKWCETNGIEYVVRSHEVKPEGYEMHHNGQCFTVFSAPNYCDQMNNKGAFITITGDNLTPRFTPFDAVPHPKLPPMAYANSLFGFN
[1]
  kcat of PPH-5 towards the model peptide KRpTIRR (50 μM) with 3 μM Hsp90-MC: 0.161 s⁻¹
[2]
  stoichiometry N (PPH-5 per CeHsp90-MC dimer): 2
